Measurements published in PMC3773880.
pKi: −log10 of the molar value.

Legend:
[1] = molecular target: low molecular weight gingipain R (RgpB) (Porphyromonas gingivalis) (UniProt P95493); assay: enzyme inhibition kinetics
[2] = molecular target: high molecular weight gingipain R (HRgpA) (Porphyromonas gingivalis); assay: enzyme inhibition kinetics
[3] = molecular target: high molecular weight gingipain R (HRgpA) (Porphyromonas gingivalis)

Substance	pKi [1]	also measured
PD_(RgpB) R159K (domain or fragment)	8.11	
PD_(RgpA), recombinant N-terminal prodomain of RgpA (from UniProt P28784 24-227) (domain or fragment)		pKi [2]: 9.07
PD_(RgpB), recombinant N-terminal prodomain of RgpB (from UniProt P95493 25-229) (domain or fragment)		pKi [2]: 8.28; IC50 of inhibition of amidolytic activity (L-BAPNA), 10 nM enzyme [3]: 12.6 nM; IC50 of inhibition of aminopeptidase activity (H-Arg-AMC), 10 nM enzyme [3]: 4.9 nM; IC50 of inhibition of proteolytic activity (Azocoll), 10 nM enzyme [3]: 5.8 nM
PD_(RgpB) R66K (domain or fragment)	7.51	
PD_(RgpB) R102K (domain or fragment)	7.34	
PD_(RgpB) R66A (domain or fragment)	8.31	
PD_(RgpB) R102A (domain or fragment)	< 5.30	
PD_(RgpB) R102Q (domain or fragment)	< 5.30	
PD_(RgpB) R102E (domain or fragment)	< 5.30	
